Here are results for 6 molecules from US8394770B2 (priority 2007, dated 2013).

Like-named read-outs stand apart in the source and are kept apart here. Positions of bridges follow the written chain, without caps; N, C: chain ends. No end group written: not given here.

Series [1] relates to DP-BB/W rats. Conditions: repeated daily administration, assayed at 110 days of age, vs vehicle; cited from earlier work.
For series [2] the following is noted: electrophysiological experiments; cited from earlier work.
The subject of series [3] is rat brain synaptosomes. Conditions: binding to rat brain synaptosomes; cited from earlier work.
In series [4] the target is T1, hKv1.3 channels (Homo sapiens, UniProt P22001). Put plainly: Whole-cell patch-clamp block of hKv1.3 channels endogenously expressed in human peripheral blood T cells. The format is cell-based. Also on record: channels expressed endogenously in human peripheral blood T cells; endogenous in cells; host or cells: human peripheral blood T lymphocytes from healthy volunteers, PHA-stimulated.

The subject of series [5] is mice. Description: In vivo toxicity / lethality test by injection into mice. Conditions: injected, up to 10,000 microgram per 20 gram mouse weight (so in the source).
In series [6] the target is hIKCa1 (Homo sapiens, UniProt O15554). Put plainly: Patch-clamp block of recombinant hIKCa1 channels expressed in Cos-7 cells (voltage ramps). Conditions: 10 nM.
Experimental: The current carried by IKCa1 channels can be measured using a pipette filling solution having 1 μM free Ca^2+ concentration, which is sufficient to fully activate these channels [Grissmer et al., 1993].
Cos-7 cells were maintained in standard cell culturing conditions [Bagdany at al, 2005]. […] The normal extracellular solution is the same as described above. […] This solution contained 1 μM free Ca^2+ concentration to fully activate the hIKCa1 current. All other recording conditions (data acquisition, perfusion etc.) were identical to the description above for Kv1.3 channels.
Two hundred millisecond-long voltage ramps from −120 mV to +50 mV from a holding potential of −120 mV were used to elicit hIKCa1 currents in Cos-7 cells (ramp speed 0.85 mV/ms). Voltage ramps were run every 10 s. […] The reversal potential of the current is −75 mV, which is characteristic to a K^+ conductance based on the ionic composition of the recording solutions. For IKCa1 currents the slope (s) of the linear current-voltage relationship can be used to characterize the current block [Grissmer et al., 1993]. […] Error bars indicate SEM for n=3 independent experiments.
In series [7] the target is mKv1.1 (Mus musculus, UniProt P16388). Description: Patch-clamp block of mKv1.1 channels stably expressed in L929 cells. The conditions noted are these: 10 nM. A general note: The patch-clamp technique gives a direct electrical read-out from membranes.
For series [8], the target named is T2, hKv1.2 (Homo sapiens, UniProt P16389). Description: Patch-clamp block of hKv1.2 channels expressed in Cos-7 cells.
The target in series [9] is hKv1.2 channel (human, UniProt P16389). Description: ratio of Kd values from patch clamp, reference hKv1.3.
Series [10] deals with mKv1.1 channel (Mus musculus (Mouse), UniProt P16388). The description is as above.
In series [11] the target is hIKCa1 channel (EGFP-tagged) (human) (UniProt O15554). The description is as above.
Series [12] addresses T3, hKv1.3 channel (human, UniProt P22001). Description: whole-cell patch clamp; recovery of hKv1.3 current on wash-out after 3 pM Vm24.
The target in series [13] is T3, hKv1.3 channel.
Series [14] deals with T3, hKv1.3 channel. Put plainly: patch clamp on human lymphocytes (summary of the result).
Series [15] addresses T1, hKv1.3 channels.
Series [16] addresses mKv1.1 channel (Mus musculus (Mouse)) (UniProt P16388).
Series [17] concerns the target T2, hKv1.2.
Series [18] has as its target T1, hKv1.3 channels. The source holds these as a separate data set.

T1 sequence (P22001 whole entry): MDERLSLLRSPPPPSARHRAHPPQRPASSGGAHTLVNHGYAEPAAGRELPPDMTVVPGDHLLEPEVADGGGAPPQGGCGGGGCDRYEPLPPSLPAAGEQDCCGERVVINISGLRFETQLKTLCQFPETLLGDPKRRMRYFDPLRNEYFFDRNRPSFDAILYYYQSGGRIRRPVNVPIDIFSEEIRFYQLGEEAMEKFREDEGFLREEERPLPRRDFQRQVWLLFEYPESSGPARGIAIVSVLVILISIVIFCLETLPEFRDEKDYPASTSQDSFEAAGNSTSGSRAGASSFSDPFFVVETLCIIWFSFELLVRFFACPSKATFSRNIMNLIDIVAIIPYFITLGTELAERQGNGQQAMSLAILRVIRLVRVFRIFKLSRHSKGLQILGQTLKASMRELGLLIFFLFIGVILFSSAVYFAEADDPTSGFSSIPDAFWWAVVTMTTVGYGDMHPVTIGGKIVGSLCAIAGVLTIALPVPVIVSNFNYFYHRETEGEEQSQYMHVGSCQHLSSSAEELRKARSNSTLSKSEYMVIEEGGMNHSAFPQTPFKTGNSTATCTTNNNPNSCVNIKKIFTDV
T2 sequence (P16389 whole entry): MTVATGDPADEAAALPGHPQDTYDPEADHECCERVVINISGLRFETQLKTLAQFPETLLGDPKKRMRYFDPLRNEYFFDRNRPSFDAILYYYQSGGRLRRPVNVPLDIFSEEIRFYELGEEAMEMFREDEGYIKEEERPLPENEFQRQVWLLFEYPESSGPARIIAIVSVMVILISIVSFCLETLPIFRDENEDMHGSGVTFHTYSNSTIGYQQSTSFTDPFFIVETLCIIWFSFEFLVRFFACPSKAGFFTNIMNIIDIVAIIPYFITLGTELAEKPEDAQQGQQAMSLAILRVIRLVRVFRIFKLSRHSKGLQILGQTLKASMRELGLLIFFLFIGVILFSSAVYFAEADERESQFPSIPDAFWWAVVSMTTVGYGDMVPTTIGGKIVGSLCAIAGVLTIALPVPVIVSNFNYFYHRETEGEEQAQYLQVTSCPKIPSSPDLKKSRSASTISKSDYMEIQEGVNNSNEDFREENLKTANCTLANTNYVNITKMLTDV
Chain of hIKCa1 (O15554 whole entry): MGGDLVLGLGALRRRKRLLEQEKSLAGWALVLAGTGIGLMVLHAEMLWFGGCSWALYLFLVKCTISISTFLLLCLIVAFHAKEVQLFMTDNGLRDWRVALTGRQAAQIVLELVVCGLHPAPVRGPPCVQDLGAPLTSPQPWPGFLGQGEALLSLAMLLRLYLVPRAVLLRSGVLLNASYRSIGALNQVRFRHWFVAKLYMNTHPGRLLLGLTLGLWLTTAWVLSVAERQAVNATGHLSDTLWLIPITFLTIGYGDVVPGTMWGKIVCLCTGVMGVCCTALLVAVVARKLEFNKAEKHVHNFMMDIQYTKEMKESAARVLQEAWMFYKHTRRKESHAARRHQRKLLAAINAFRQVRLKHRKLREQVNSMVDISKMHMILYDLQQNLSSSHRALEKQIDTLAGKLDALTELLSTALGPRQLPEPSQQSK
Chain of mKv1.1 (P16388 whole entry): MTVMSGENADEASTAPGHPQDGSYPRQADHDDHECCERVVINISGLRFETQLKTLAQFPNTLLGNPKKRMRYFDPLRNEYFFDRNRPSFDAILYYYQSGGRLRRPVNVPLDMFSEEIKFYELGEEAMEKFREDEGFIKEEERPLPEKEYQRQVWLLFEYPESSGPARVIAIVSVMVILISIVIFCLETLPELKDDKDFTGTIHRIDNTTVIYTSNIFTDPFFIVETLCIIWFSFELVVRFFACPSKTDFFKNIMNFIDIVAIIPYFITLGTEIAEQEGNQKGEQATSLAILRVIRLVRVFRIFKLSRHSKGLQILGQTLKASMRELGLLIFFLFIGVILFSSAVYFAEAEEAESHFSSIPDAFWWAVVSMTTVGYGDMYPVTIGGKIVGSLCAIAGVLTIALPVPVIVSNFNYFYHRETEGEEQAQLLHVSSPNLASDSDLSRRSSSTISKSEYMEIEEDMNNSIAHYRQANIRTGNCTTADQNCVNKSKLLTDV
Chain of hIKCa1 channel (EGFP-tagged) (human) (O15554 whole entry): as the sequence (O15554 whole entry) above
Chain of mKv1.1 channel (Mus musculus (Mouse)) (P16388 whole entry): as the sequence (P16388 whole entry) above

In the case of `O=c1ccc2c(OCCCCOc3ccccc3)c3ccoc3cc2o1` [PAP-1], the “reduction of the fraction of rats showing symptoms of EAD” value in series [1] was ~50%.
With “HsTx1: toxin of the scorpion Heterometrus spinnifer, SEQ ID NO: 6”, the “potency of amidated form relative to free-carboxyl-terminal form” value in series [2] is 5 fold. Besides, in series [3], the “activity of amidated form relative to free-carboxyl-terminal form” value is on record as “up to 300 fold”.
As for “Vm23: 35 amino acid peptide from V. mexicanus venom, SEQ ID NO:1, four disulfide bridges, 83% identical to Vm24 (AAAISCVGSKECLPKCKAQGCKSGKCMNKKCKCYC; not fully specified (bridges); also: four disulfide bridges (pairing not given here))”, in series [4] (10 nM), the “blockage of hKv1.3 current” value is “approximately 95%” and the “time for equilibrium block of hKv1.3 to develop” value was 3.5 min. Further, in series [4] (10 nM, within 3.5 min), the “block of hKv1.3 current (words)” value is reported as “almost completely disappeared”. For the same molecule, the “relief of hKv1.3 block on wash-out” value in series [4] (after 10 nM, within 2 minutes) was “did not result in a significant relief”. Besides, in series [5], the “toxicity in experimental animals” value is recorded as “not toxic”. Besides, in [6], the “block of hIKCa1” value is “practically does not block” and the “current inhibition hIKCa1” value is ~1%. Besides, in series [7], the “block of mKv1.1” value was “practically does not block” and the “current inhibition mKv1.1” value is ~3%. Also, in [8] (10 nM), the “current inhibition hKv1.2” value is recorded as ~9% and the “time for equilibrium block of hKv1.2 to develop” value came to 3.5 min. Moreover, the “remaining current fraction (RCF) hKv1.2” value in series [8] (10 nM, n=3) is reported as 0.91±0.02. For the same molecule, the “reversibility of hKv1.2 block” value in series [8] (after 10 nM, wash-out) was “not readily reversible within 2 min”.
As for “sVm24: chemically synthesized, correctly folded Vm24; primary sequence identical to the natural peptide (AAAISCVGSPECPPKCRAQGCKNGKCMNRKCKCYYC-NH2; not fully specified (bridges); also: disulfide pairing as native peptide (not given here))”, in [4] (100 pM), the “block of hKv1.3 current” value is > 90% and the “block of hKv1.3 current (words)” value was “almost completely disappeared”. For the same molecule, the “potency in blocking hKv1.3 compared with natural toxin” value in [4] (RCF at 100 pM, t-test p=0.57) is “as potent as the natural toxin”.

B1: Vm24 (peptide)
peptide: AAAISCVGSPECPPKCRAQGCKNGKCMNRKCKCYYC-NH2
modifications: disulfide 12-31, 16-33, 21-36, 6-26; N-terminus assumed
SMILES: CC[C@H](C)[C@H](NC(=O)[C@H](C)NC(=O)[C@H](C)NC(=O)[C@H](C)N)C(=O)N[C@@H](CO)C(=O)N[C@H]1CSSC[C@@H]2NC(=O)[C@H](CCCCN)NC(=O)CNC(=O)[C@H](CC(N)=O)NC(=O)[C@H](CCCCN)NC(=O)[C@@H]3CSSC[C@@H](C(N)=O)NC(=O)[C@H](Cc4ccc(O)cc4)NC(=O)[C@H](Cc4ccc(O)cc4)NC(=O)[C@@H]4CSSC[C@H](NC(=O)[C@H](CCCCN)NC(=O)[C@@H]5CCCN5C(=O)[C@@H]5CCCN5C(=O)[C@H](CSSC[C@H](NC(=O)[C@H](CCCCN)NC(=O)[C@H](CCCNC(=N)N)NC(=O)[C@H](CC(N)=O)NC(=O)[C@H](CCSC)NC2=O)C(=O)N[C@@H](CCCCN)C(=O)N4)NC(=O)[C@H](CCC(=O)O)NC(=O)[C@@H]2CCCN2C(=O)[C@H](CO)NC(=O)CNC(=O)[C@H](C(C)C)NC1=O)C(=O)N[C@@H](CCCNC(=N)N)C(=O)N[C@@H](C)C(=O)N[C@@H](CCC(N)=O)C(=O)NCC(=O)N3
Consider B1, for which the “selectivity for hKv1.3 over hKv1.2” value in [9] was ≥ 1500 fold. In addition, in [10], the “selectivity for hKv1.3 over mKv1.1” value was ≥ 10000 fold. Moreover, the selectivity for hKv1.3 over hIKCa1 in series [11] is > 4500 fold. Further, in series [12], the koff – broadly, the rate constant with which the complex falls apart – is ~0.00026 s⁻¹. The dissociation constant (Kd) (as a rule, the equilibrium constant for the complex coming apart) was 2.9 pM in series [13] and < 3 pM in [14]. In series [15], this molecule had a remaining current fraction (RCF) of whole-cell hKv1.3 current at 10 nM Vm24 of 0.01 RCF. Moreover, the remaining current fraction (RCF) at 10 nM Vm24 in series [16] worked out at 0.8 RCF; in [17] it was 0.54 RCF.

B2: Vm23 (peptide)
peptide: AAAISCVGSKECLPKCKAQGCKSGKCMNKKCKCYC-OH
modifications: disulfide (positions not given here); also: four disulfide bridges, pairing not given here (assumed as in Vm24)
In turn, B2 came in with a blockage of the current at 10 nM Vm23 in series [18] of 95%.
